From the Human Domainome abundance scans (Beltran et al. 2025)
± gives the uncertainty stated by the source.

B1: POU domain, class 2, transcription factor 1, residues 285 to 354; numbered along this chain, P14859 (parent)
chain: LEELEQFAKTFKQRRIKLGFTQGDVGLAMGKLYGNDFSQTTISRFEALNLSFKNMCKLKPLLEKWLNDAE

Variants of: B1
Experiment: abundance fitness (aPCA) (normalised: wild type 0, dead -1); higher = more abundant; growth selection in yeast, the domain comes from the species named
Details: Homo sapiens

Abundance fitness of substitutions, site by site:
K59: D -0.672 ± 0.084; F -0.138 ± 0.037; V -0.056 ± 0.033; H -0.014 ± 0.039; M -0.002 ± 0.056; N -0.311 ± 0.054; R -0.005 ± 0.023; W -0.026 ± 0.044; C -0.134 ± 0.039; P -0.72 ± 0.027; S -0.092 ± 0.023; G -0.175 ± 0.029; Q -0.037 ± 0.045; L -0.06 ± 0.023; Y -0.072 ± 0.054; T -0.033 ± 0.031; A -0.028 ± 0.022; I -0.13 ± 0.051
M55: Q -0.034 ± 0.028; F -0.107 ± 0.04; V -0.167 ± 0.041; Y -0.153 ± 0.027; E -0.488 ± 0.051; S -0.1 ± 0.024; D -0.381 ± 0.073; G -0.068 ± 0.043; I -0.086 ± 0.05; L -0.013 ± 0.025; P -0.991 ± 0.055; R -0.48 ± 0.023; C -0.12 ± 0.029; K -0.51 ± 0.038; W -0.271 ± 0.031; H -0.247 ± 0.033
C56: W -0.005 ± 0.039; S 0.032 ± 0.022; Y 0.042 ± 0.081; I -0.014 ± 0.088; G -0.047 ± 0.022; T 0.023 ± 0.027; F 0.027 ± 0.066; A -0.004 ± 0.023; V -0.01 ± 0.036; M 0.034 ± 0.064; H -0.085 ± 0.04; Q 0.063 ± 0.041; L -0.016 ± 0.033; K -0.201 ± 0.08; P -0.681 ± 0.029
K57: A -0.031 ± 0.03; S -0.006 ± 0.02; V -0.024 ± 0.037; L -0.005 ± 0.02; D 0.04 ± 0.056; Q -0.018 ± 0.032; C 0.005 ± 0.035; F -0.027 ± 0.033; G -0.082 ± 0.05; H -0.069 ± 0.035; E -0.004 ± 0.068; W -0.042 ± 0.032; Y 0.031 ± 0.028; I -0.058 ± 0.057; M -0.063 ± 0.037; P -0.451 ± 0.022; R -0.047 ± 0.026
N54: A 0.019 ± 0.02; I 0.054 ± 0.061; S 0.009 ± 0.022; T -0.008 ± 0.026; H 0.004 ± 0.09; Y -0.01 ± 0.065; G -0.018 ± 0.022; V 0.006 ± 0.023; P -0.135 ± 0.028; K 0.009 ± 0.043; C 0.011 ± 0.034; D 0.08 ± 0.058; L -0.005 ± 0.022; M -0.005 ± 0.039
S43: F -0.088 ± 0.03; W -0.086 ± 0.05; P -0.03 ± 0.027; I -0.064 ± 0.05; N 0.005 ± 0.18; Y -0.053 ± 0.055; R 0.018 ± 0.037; G -0.156 ± 0.16; Q 0.029 ± 0.028; C -0.033 ± 0.086; M -0.013 ± 0.036; H -0.077 ± 0.042; E -0.013 ± 0.088; L -0.067 ± 0.018; K 0.121 ± 0.11; T -0.007 ± 0.039; D -0.161 ± 0.14; A 0.035 ± 0.051
L58: S -0.178 ± 0.025; G -0.632 ± 0.028; N -0.396 ± 0.065; V 0.005 ± 0.02; E -0.526 ± 0.06; M 0.014 ± 0.062; W 0.002 ± 0.035; Q -0.199 ± 0.04; Y -0.115 ± 0.057; C -0.019 ± 0.029; P -0.802 ± 0.03; D -0.474 ± 0.052; F -0.026 ± 0.034; A -0.062 ± 0.021; H -0.046 ± 0.038; I -0.027 ± 0.055; T -0.07 ± 0.026; K -0.202 ± 0.063
L48: M -0.007 ± 0.035; F -0.054 ± 0.039; I 0.014 ± 0.04; C 0.001 ± 0.086; A -0.054 ± 0.081; K 0.084 ± 0.036; R 0.004 ± 0.058; Y -0.053 ± 0.046; T -0.004 ± 0.032; Q 0.006 ± 0.031; W -0.142 ± 0.065; P -0.336 ± 0.026; V -0.085 ± 0.074; N -0.03 ± 0.059; S -0.005 ± 0.023
F52: A 0.017 ± 0.079; I 0.013 ± 0.03; E -0.035 ± 0.039; H 0.059 ± 0.046; W -0.002 ± 0.025; P -0.324 ± 0.17; Q -0.059 ± 0.039; L -0.005 ± 0.019; C -0.037 ± 0.031; Y 0.001 ± 0.028; G -0.059 ± 0.025; M -0.026 ± 0.026; K -0.024 ± 0.032; S -0.017 ± 0.029; R -0.001 ± 0.022; T 0.02 ± 0.072; V 0.009 ± 0.021; D 0.007 ± 0.043; N -0.039 ± 0.041
F45: I -0.382 ± 0.043; V -0.429 ± 0.034; W -0.247 ± 0.036; K -0.97 ± 0.052; S -0.864 ± 0.055; P -1.04 ± 0.07; Y -0.133 ± 0.046; E -1.01 ± 0.11; T -0.847 ± 0.058; C -0.451 ± 0.081; R -1.01 ± 0.043; A -0.62 ± 0.096; L -0.115 ± 0.019; M -0.137 ± 0.022; H -0.952 ± 0.052; Q -1.02 ± 0.042; N -1.04 ± 0.086
R44: Y -0.155 ± 0.1; M -0.032 ± 0.032; L -0.026 ± 0.018; D -0.058 ± 0.13; Q 0.042 ± 0.027; T -0.089 ± 0.061; W -0.253 ± 0.092; K -0.048 ± 0.052; I -0.794 ± 0.14; A 0.013 ± 0.035; H -0.027 ± 0.048; E -0.059 ± 0.065; P -1.02 ± 0.078; S 0.015 ± 0.036; C -0.053 ± 0.15; N -0.165 ± 0.17
N49: F -0.279 ± 0.056; R -0.079 ± 0.049; D 0.033 ± 0.21; L -0.029 ± 0.021; Q 0.007 ± 0.036; E 0.043 ± 0.045; S -0.004 ± 0.023; G -0.002 ± 0.053; I 0.025 ± 0.06; V -0.052 ± 0.032; T 0.03 ± 0.029; P -0.65 ± 0.026; C -0.086 ± 0.1; H -0.063 ± 0.074; W -0.218 ± 0.047; K -0.045 ± 0.05; Y -0.063 ± 0.086
L50: E -0.041 ± 0.044; C 0.007 ± 0.036; G -0.074 ± 0.024; N -0.385 ± 0.075; T -0.073 ± 0.026; A -0.121 ± 0.024; D -0.026 ± 0.051; S -0.151 ± 0.025; M 0.038 ± 0.046; Y -0.03 ± 0.053; I -0.135 ± 0.083; V -0.1 ± 0.042; Q -0.207 ± 0.03; P -0.678 ± 0.026; W -0.148 ± 0.04; R -0.738 ± 0.023
K53: R 0.015 ± 0.021; M 0.078 ± 0.15; D -0.029 ± 0.057; L 0.008 ± 0.035; F 0.041 ± 0.066; I 0.089 ± 0.14; S -0.006 ± 0.024; N 0.063 ± 0.21; C 0.015 ± 0.03; V -0.048 ± 0.039; A 0.049 ± 0.021; P 0.007 ± 0.022; T -0.028 ± 0.042; G -0.017 ± 0.023; Q -0.019 ± 0.042; E 0.039 ± 0.053; Y -0.122 ± 0.072; H -0.024 ± 0.058
I42: W -0.655 ± 0.079; M -0.276 ± 0.047; H -0.983 ± 0.17; K -0.789 ± 0.08; C -0.336 ± 0.16; D -1.08 ± 0.1; P -0.877 ± 0.04; N -0.805 ± 0.091; G -1.09 ± 0.058; Q -0.948 ± 0.071; R -0.869 ± 0.051; Y -0.674 ± 0.25; L -0.074 ± 0.032; S -0.997 ± 0.062; A -0.655 ± 0.021
E46: I -0.84 ± 0.15; V -0.852 ± 0.058; F -1 ± 0.23; H -0.856 ± 0.23; Y -1.02 ± 0.32; L -1.01 ± 0.048; Q -0.851 ± 0.085; D -0.754 ± 0.17; W -0.698 ± 0.054; C -0.801 ± 0.13; T -0.934 ± 0.072; K -0.658 ± 0.1; G -0.929 ± 0.056; N -0.783 ± 0.17
P60: F -0.114 ± 0.037; I -0.059 ± 0.042; D -0.042 ± 0.17; V -0.141 ± 0.064; M -0.065 ± 0.057; Q -0.094 ± 0.033; H -0.094 ± 0.034; K -0.072 ± 0.047; L -0.074 ± 0.022; N -0.094 ± 0.041; C -0.051 ± 0.058; T -0.08 ± 0.036; S -0.029 ± 0.029; R -0.107 ± 0.026; Y -0.217 ± 0.04; A -0.066 ± 0.077
S51: I -0.801 ± 0.22; Y -0.496 ± 0.072; R -0.056 ± 0.02; W -0.982 ± 0.052; P 0.002 ± 0.022; L -0.579 ± 0.026; G 0.028 ± 0.021; A -0.055 ± 0.021; M -0.472 ± 0.04; T -0.035 ± 0.028; F -0.807 ± 0.083; C -0.086 ± 0.04; H -0.076 ± 0.045; K -0.023 ± 0.036; E 0.003 ± 0.035; Q -0.09 ± 0.028; N -0.099 ± 0.073
A47: Q 0.017 ± 0.022; G 0.001 ± 0.024; H -0.107 ± 0.059; N 0.033 ± 0.11; P -0.964 ± 0.047; D 0.092 ± 0.087; K -0.015 ± 0.028; E 0.055 ± 0.027; R -0.044 ± 0.022; L 0.054 ± 0.28; S -0.048 ± 0.14
L61: M -0.053 ± 0.037; I -0.097 ± 0.084; C -0.188 ± 0.052; F -0.005 ± 0.047; H 0.016 ± 0.075; P -0.006 ± 0.063; G -0.09 ± 0.036; N -0.017 ± 0.11; D -0.075 ± 0.061; K -0.031 ± 0.042
T41: M -0.029 ± 0.036; D -0.018 ± 0.072; S 0.005 ± 0.023; A -0.02 ± 0.025; N -0.029 ± 0.075; W -0.088 ± 0.039; Q -0.028 ± 0.033; L -0.023 ± 0.021; K 0.022 ± 0.086; V -0.029 ± 0.032; E -0.163 ± 0.089; C -0.08 ± 0.069; I -0.067 ± 0.058; R -0.098 ± 0.024; H -0.052 ± 0.052; F -0.1 ± 0.055; P -0.209 ± 0.021
